{
  "source": "paper PMC10293810",
  "about": "“Multiple RNA- and DNA-binding proteins exhibit direct transfer of polynucleotides with implications for target-site search”",
  "binders": {"B1": {"name": "r(G3A2)4[F] (structured_RNA)", "RNA": "GGGAAGGGAAGGGAAGGGAA"}, "B2": {"name": "RNA1MS2 (structured_RNA)", "RNA": "GGGACUGAGGAUCACCCAGUCUAU"}, "B3": {"name": "[F]RNAPUF (ssRNA)", "RNA": "AACAUGUGCCAUA"}, "B4": {"name": "[F]d(N)5 (ssDNA)", "DNA": "GACTG"}, "B5": {"name": "[F]RNA2MS2 (structured_RNA)", "RNA": "GGACAUGAGGAUCACCCAUGU"}},
  "key": {"[1]": {"molecular_target": "hnRNP-U RNA-binding domain (human, UniProt Q00839 673-825)", "sequence (Q00839 673-825)": "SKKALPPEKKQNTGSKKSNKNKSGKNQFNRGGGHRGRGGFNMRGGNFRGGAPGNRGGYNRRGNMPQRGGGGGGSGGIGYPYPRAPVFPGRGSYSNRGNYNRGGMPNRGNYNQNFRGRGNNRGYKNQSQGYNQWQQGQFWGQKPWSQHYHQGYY", "experiment": "fluorescence polarization; 25 C; apparent Kd; FP with 5 nM ligand at 25 C (some FPCD at 4 C); buffer for MS2-CP (BB6): 100 mM Tris pH 7.5, 10 mM MgCl2, 80 mM KCl, 0.1 mg/mL BSA; other buffers not in material", "details": "protein: recombinant; tags: N-terminal His-MBP fusion; label: fluorophore, 3' by name; G-quadruplex"}, "[2]": {"molecular_target": "T1, MS2 coat protein V75E,A81G (MS2 bacteriophage, UniProt P03612 2-130, V76E;A82G)", "experiment": "competition; displaces [F]RNA2MS2; FP with 5 nM ligand at 25 C (some FPCD at 4 C); buffer for MS2-CP (BB6): 100 mM Tris pH 7.5, 10 mM MgCl2, 80 mM KCl, 0.1 mg/mL BSA; other buffers not in material", "details": "protein: recombinant; tags: HisMBP fusion with 3C protease site; chain copies: 2; hairpin"}, "FBF-2 RNA-binding domain": {"molecular_target": "T2, FBF-2 RNA-binding domain (Caenorhabditis elegans, UniProt Q09312 164-575)", "T2 sequence": "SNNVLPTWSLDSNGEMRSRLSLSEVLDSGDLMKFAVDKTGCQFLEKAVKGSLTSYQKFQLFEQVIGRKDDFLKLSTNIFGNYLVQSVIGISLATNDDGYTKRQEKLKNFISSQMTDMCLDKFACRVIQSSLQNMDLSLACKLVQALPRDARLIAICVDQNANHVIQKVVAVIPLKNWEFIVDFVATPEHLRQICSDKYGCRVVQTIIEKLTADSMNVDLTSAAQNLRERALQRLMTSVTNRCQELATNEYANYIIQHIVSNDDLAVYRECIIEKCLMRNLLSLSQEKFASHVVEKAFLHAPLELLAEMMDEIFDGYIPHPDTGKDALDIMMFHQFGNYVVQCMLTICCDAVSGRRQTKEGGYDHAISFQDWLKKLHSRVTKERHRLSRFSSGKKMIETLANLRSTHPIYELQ", "experiment": "fluorescence polarization; 25 C; apparent Kd; FP with 5 nM ligand at 25 C (some FPCD at 4 C); buffer for MS2-CP (BB6): 100 mM Tris pH 7.5, 10 mM MgCl2, 80 mM KCl, 0.1 mg/mL BSA; other buffers not in material", "details": "protein: recombinant; label: 5' 6-FAM"}, "TREX1 R174A,K175A": {"molecular_target": "T3, TREX1 R174A,K175A (murine, UniProt Q91XB0 1-242, R174A;K175A)", "T3 sequence": "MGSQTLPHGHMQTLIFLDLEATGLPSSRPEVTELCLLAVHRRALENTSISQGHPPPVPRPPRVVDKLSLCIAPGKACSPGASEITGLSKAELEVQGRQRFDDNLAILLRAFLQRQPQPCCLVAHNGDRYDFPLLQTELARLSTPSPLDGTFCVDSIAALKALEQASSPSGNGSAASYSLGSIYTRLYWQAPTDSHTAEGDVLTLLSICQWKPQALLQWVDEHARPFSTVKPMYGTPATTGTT", "experiment": "fluorescence polarization; 25 C; apparent Kd; FP with 5 nM ligand at 25 C (some FPCD at 4 C); buffer for MS2-CP (BB6): 100 mM Tris pH 7.5, 10 mM MgCl2, 80 mM KCl, 0.1 mg/mL BSA; other buffers not in material", "details": "protein: recombinant; tags: MBP fusion, cleaved by protease (similar to WT); chain copies: 2; label: 5' fluorophore (FP)"}, "TREX1 catalytic core": {"molecular_target": "T4, TREX1 catalytic core (murine, UniProt Q91XB0 1-242)", "T4 sequence": "T3 sequence with A174R, A175K", "experiment": "fluorescence polarization; 25 C; apparent Kd; FP with 5 nM ligand at 25 C (some FPCD at 4 C); buffer for MS2-CP (BB6): 100 mM Tris pH 7.5, 10 mM MgCl2, 80 mM KCl, 0.1 mg/mL BSA; other buffers not in material", "details": "protein: recombinant; tags: MBP fusion, cleaved by protease; chain copies: 2; label: 5' fluorophore (FP)"}, "[3]": {"molecular_target": "T1, MS2 coat protein V75E,A81G", "experiment": "fluorescence polarization; 25 C; apparent Kd, ligand 5 nM >= Kd so true Kd may be lower; FP with 5 nM ligand at 25 C (some FPCD at 4 C); buffer for MS2-CP (BB6): 100 mM Tris pH 7.5, 10 mM MgCl2, 80 mM KCl, 0.1 mg/mL BSA; other buffers not in material", "details": "protein: recombinant; tags: HisMBP fusion with 3C protease site; chain copies: 2; label: fluorophore; hairpin"}},
  "note": "Where a chain is given by its changes, count along the chain named.",
  "data": [
    {"binder": "B1", "values": [
      {"measurement": "Kd", "setting": "[1]", "value": "15 ± 4.8", "unit": "nM"}
    ]},
    {"binder": "B2", "values": [
      {"measurement": "binding result", "setting": "[2]", "value": "binds"}
    ]},
    {"binder": "B3", "values": [
      {"measurement": "Kd", "setting": "FBF-2 RNA-binding domain", "value": "50 ± 9.2", "unit": "nM"}
    ]},
    {"binder": "B4", "values": [
      {"measurement": "Kd", "setting": "TREX1 R174A,K175A", "value": "46 ± 16", "unit": "nM"},
      {"measurement": "Kd", "setting": "TREX1 catalytic core", "value": "8.9 ± 3.8", "unit": "nM"}
    ]},
    {"binder": "B5", "values": [
      {"measurement": "Kd", "setting": "[3]", "value": "2.9 ± 0.62", "unit": "nM"}
    ]}
  ]
}
